Test system: protease according to SEQ ID NO: 3
Assay: Relative proteolytic activity with reversible inhibitor in liquid surfactant preparation (Example 1)
Assay type: biochemical
Settings: 50% conc. surfactant preparation, 0.92 mM AAPF, 25° C., pH 8.6, relative to same protease without inhibitor; for relative activity, 3-HPBA: 3-HPBA in amount inhibiting starting enzyme by 20-40%; for relative activity, 4-FPBA: 4-FPBA in amount inhibiting starting enzyme by 20-40%; for relative activity, Boric acid: boric acid in amount inhibiting starting enzyme by 20-40%; for relative activity, BMA: benzylmalonic acid in amount inhibiting starting enzyme by 20-40%
Excerpt: The relative activity to be determined in process step c) of the hydrolytic enzyme modified in process step b) is given by [measured activity of the hydrolytic enzyme modified in process step b) in the presence of the component that stabilizes the hydrolytic enzyme] divided by [measured activity of the hydrolytic enzyme modified in process step b) in the absence of the component that stabilizes the hydrolytic enzyme] multiplied by 100.
The relative activity of the starting enzyme to be determined in process step c) is given by [measured activity of the starting enzyme in the presence of the component that stabilizes the hydrolytic enzyme] divided by [measured activity of the starting enzyme in the absence of the component that stabilizes the hydrolytic enzyme] multiplied by 100.
The nucleic acid sequence of the hydrolytic enzyme present on a plasmid was modified individually or in combination as indicated in Tables 1 and 2 using site directed mutagenesis by means of specific, adapted primers using a Phusion Hot Start Polymerase at the positions S166, A187, F189 or Q191 in the counting according to SEQ ID NO: 1, and the resulting variants were transformed into a suitable host. Active clones were selected by means of a protease-sensitive medium and the DNA sequence was sequenced after isolation of the plasmid for identification purposes. The modified proteases were expressed in the Bacillus host and prepared for the activity determination.
The activity was determined in a liquid preparation that was constituted as follows (all data in wt %): 0.3-0.5% xanthan, 0.2-0.4% defoamer, 6-7% glycerin, 0.3-0.5% ethanol, 4-7% FAEOS (fatty alcohol ether sulfate), 24-28% non-ionic surfactants, 1-2% sodium citrate (dihydrate), 2-4% soda, 14-16% cocoanut fatty acids, 0.5% HEDP (1-hydroxyethane-(1,1-diphosphonic acid)), 0-0.4% PVP (polyvinyl pyrrolidone) 0-0.5% optical brightener, 0-0.001% % colorant, the remainder being demineralized water.
To a 50% conc. liquid preparation of the liquid surfactant preparation were added 0.92 mM AAPF. The reversible inhibitor to be tested was also comprised in the required amount to inhibit the starting enzyme by 20-40%. 20 μl of the respective protease (starting enzyme as well as modified protease variants) were added and the proteolytic activity determined from the release of the chromophore para-nitroaniline (pNA) from the substrate suc-L-Ala-L-Ala-L-Pro-L-Phe-p-nitroanilide (suc-AAPF-pNA). The protease cleaves the substrate and releases pNA. The released pNA causes the extinction at 410 nm to increase; the change in extinction as a function of time is a measure of the enzymatic activity (see Del Mar et al., 1979). The measurement was carried out at a temperature of 25° C., at pH 8.6 and a wavelength of 410 nm.
The measured activity was compared with the activity of a reference formulation of the same protease sample without inhibitor and the respective relative activities of the modified proteases and the starting enzyme were determined. […] The results are presented in the following Tables 1 and 2 (the relative activities are each given).

B1: S166A: protease of SEQ ID NO: 3 with amino acid substitution S166A in the count according to SEQ ID NO: 1 (protein, listed as Bacillus lentus)
chain: AQSVPWGISRVQAPAAHNRGLTGSGVKVAVLDTGISTHPDLNIRGGASFVPGEPSTQDGNGHGTHVAGTIAALNNSIGVLGVAPSAELYAVKVLGADGEGAISSIAQGLEWAGNNGMHVANLSLGSPSPSATLEQAVNSATSRGVLVVAASGNSGASSIAYPARYANAMAVGATDQNNNRASFSQYGAGLDIVAPGVNVQSTYPGSTYASLNGTSMATPHVAGAAALVKQKNPSWSNVQIRNHLKNTATSLGSTNLYGSGLVNAEAATR
relative activity, 3-HPBA (Table 1): 83% | relative activity, 4-FPBA (Table 1): 61% | relative activity, Boric acid (Table 1): 76%

B2: S166Y: protease of SEQ ID NO: 3 with amino acid substitution S166Y in the count according to SEQ ID NO: 1 (protein, listed as Bacillus lentus)
chain: AQSVPWGISRVQAPAAHNRGLTGSGVKVAVLDTGISTHPDLNIRGGASFVPGEPSTQDGNGHGTHVAGTIAALNNSIGVLGVAPSAELYAVKVLGADGEGAISSIAQGLEWAGNNGMHVANLSLGSPSPSATLEQAVNSATSRGVLVVAASGNSGASSIYYPARYANAMAVGATDQNNNRASFSQYGAGLDIVAPGVNVQSTYPGSTYASLNGTSMATPHVAGAAALVKQKNPSWSNVQIRNHLKNTATSLGSTNLYGSGLVNAEAATR
relative activity, 3-HPBA (Table 1): 58% | relative activity, 4-FPBA (Table 1): 100% | relative activity, Boric acid (Table 1): 68%

B3: A187D: protease of SEQ ID NO: 3 with amino acid substitution A187D in the count according to SEQ ID NO: 1 (protein, listed as Bacillus lentus)
chain: AQSVPWGISRVQAPAAHNRGLTGSGVKVAVLDTGISTHPDLNIRGGASFVPGEPSTQDGNGHGTHVAGTIAALNNSIGVLGVAPSAELYAVKVLGADGEGAISSIAQGLEWAGNNGMHVANLSLGSPSPSATLEQAVNSATSRGVLVVAASGNSGASSISYPARYANAMAVGATDQNNNRDSFSQYGAGLDIVAPGVNVQSTYPGSTYASLNGTSMATPHVAGAAALVKQKNPSWSNVQIRNHLKNTATSLGSTNLYGSGLVNAEAATR
relative activity, BMA (Table 2): 79% | relative activity, Boric acid (Table 2): 47%

B4: F189R: protease of SEQ ID NO: 3 with amino acid substitution F189R in the count according to SEQ ID NO: 1 (protein, listed as Bacillus lentus)
chain: AQSVPWGISRVQAPAAHNRGLTGSGVKVAVLDTGISTHPDLNIRGGASFVPGEPSTQDGNGHGTHVAGTIAALNNSIGVLGVAPSAELYAVKVLGADGEGAISSIAQGLEWAGNNGMHVANLSLGSPSPSATLEQAVNSATSRGVLVVAASGNSGASSISYPARYANAMAVGATDQNNNRASRSQYGAGLDIVAPGVNVQSTYPGSTYASLNGTSMATPHVAGAAALVKQKNPSWSNVQIRNHLKNTATSLGSTNLYGSGLVNAEAATR
relative activity, BMA (Table 2): 80% | relative activity, Boric acid (Table 2): 53%

B5: Q191R: protease of SEQ ID NO: 3 with amino acid substitution Q191R in the count according to SEQ ID NO: 1 (protein, listed as Bacillus lentus)
chain: AQSVPWGISRVQAPAAHNRGLTGSGVKVAVLDTGISTHPDLNIRGGASFVPGEPSTQDGNGHGTHVAGTIAALNNSIGVLGVAPSAELYAVKVLGADGEGAISSIAQGLEWAGNNGMHVANLSLGSPSPSATLEQAVNSATSRGVLVVAASGNSGASSISYPARYANAMAVGATDQNNNRASFSRYGAGLDIVAPGVNVQSTYPGSTYASLNGTSMATPHVAGAAALVKQKNPSWSNVQIRNHLKNTATSLGSTNLYGSGLVNAEAATR
relative activity, BMA (Table 2): 63% | relative activity, Boric acid (Table 2): 76%

B6: A187D/F189R: protease of SEQ ID NO: 3 with amino acid substitutions A187D and F189R in the count according to SEQ ID NO: 1 (protein, listed as Bacillus lentus)
chain: AQSVPWGISRVQAPAAHNRGLTGSGVKVAVLDTGISTHPDLNIRGGASFVPGEPSTQDGNGHGTHVAGTIAALNNSIGVLGVAPSAELYAVKVLGADGEGAISSIAQGLEWAGNNGMHVANLSLGSPSPSATLEQAVNSATSRGVLVVAASGNSGASSISYPARYANAMAVGATDQNNNRDSRSQYGAGLDIVAPGVNVQSTYPGSTYASLNGTSMATPHVAGAAALVKQKNPSWSNVQIRNHLKNTATSLGSTNLYGSGLVNAEAATR
relative activity, BMA (Table 2): 43% | relative activity, Boric acid (Table 2): 37%

B7: S166G: protease of SEQ ID NO: 3 with amino acid substitution S166G in the count according to SEQ ID NO: 1 (protein, listed as Bacillus lentus)
chain: AQSVPWGISRVQAPAAHNRGLTGSGVKVAVLDTGISTHPDLNIRGGASFVPGEPSTQDGNGHGTHVAGTIAALNNSIGVLGVAPSAELYAVKVLGADGEGAISSIAQGLEWAGNNGMHVANLSLGSPSPSATLEQAVNSATSRGVLVVAASGNSGASSIGYPARYANAMAVGATDQNNNRASFSQYGAGLDIVAPGVNVQSTYPGSTYASLNGTSMATPHVAGAAALVKQKNPSWSNVQIRNHLKNTATSLGSTNLYGSGLVNAEAATR
relative activity, BMA (Table 2): 80% | relative activity, Boric acid (Table 2): 65%

From US9695461B2, “Method for adapting a hydrolytic enzyme to a component that stabilizes the hydrolytic enzyme” (Henkel AG & Co. KGaA, priority 2011, dated 2017)
